Experimental data published in patent US20240261378A1 (UNM RAINFOREST INNOVATIONS, published 2024).

Assays:
endogenous TRIM16 = target: T1, endogenous TRIM16 (human, UniProt O95361 1-564); assay: co-IP of endogenous proteins, HeLa lysates
T1 construct: Endogenous protein, immunoprecipitated from cell lysates

[1] = target: T2, [35S] myc-HA-TRIM16 wild type (in vitro translated) (human, UniProt O95361 1-564, [35S]-methionine radiolabel); assay: GST pull-down of in vitro translated 35S-labelled TRIM
T2 construct: not shown: Myc-HA tag

[2] = target: T3, 35S-Myc-HA-TRIM21 (in vitro translated) (human, UniProt P19474 1-475, [35S]-methionine radiolabel); assay: as above
T3 construct: not shown: Myc-HA tag
T3 sequence (P19474 whole entry): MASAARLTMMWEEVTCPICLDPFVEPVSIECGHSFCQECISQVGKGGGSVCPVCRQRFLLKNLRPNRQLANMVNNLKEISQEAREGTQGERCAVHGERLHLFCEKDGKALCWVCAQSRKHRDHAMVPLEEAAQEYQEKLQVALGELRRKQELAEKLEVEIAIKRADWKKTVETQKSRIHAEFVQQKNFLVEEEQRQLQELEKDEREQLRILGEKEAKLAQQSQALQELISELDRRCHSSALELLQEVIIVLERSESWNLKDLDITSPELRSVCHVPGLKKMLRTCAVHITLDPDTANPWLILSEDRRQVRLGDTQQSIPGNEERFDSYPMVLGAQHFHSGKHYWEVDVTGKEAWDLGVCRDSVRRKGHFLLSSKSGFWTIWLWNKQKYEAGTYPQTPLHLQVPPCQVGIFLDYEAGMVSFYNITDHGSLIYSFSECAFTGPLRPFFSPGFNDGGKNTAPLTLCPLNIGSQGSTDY

Optineurin = Optineurin (UniProt Q96CV9 1-577, limits assumed); assay: GST-galectin-8 pull-down with Sequestosome 1-like receptors
Sequence of Optineurin (Q96CV9 whole entry): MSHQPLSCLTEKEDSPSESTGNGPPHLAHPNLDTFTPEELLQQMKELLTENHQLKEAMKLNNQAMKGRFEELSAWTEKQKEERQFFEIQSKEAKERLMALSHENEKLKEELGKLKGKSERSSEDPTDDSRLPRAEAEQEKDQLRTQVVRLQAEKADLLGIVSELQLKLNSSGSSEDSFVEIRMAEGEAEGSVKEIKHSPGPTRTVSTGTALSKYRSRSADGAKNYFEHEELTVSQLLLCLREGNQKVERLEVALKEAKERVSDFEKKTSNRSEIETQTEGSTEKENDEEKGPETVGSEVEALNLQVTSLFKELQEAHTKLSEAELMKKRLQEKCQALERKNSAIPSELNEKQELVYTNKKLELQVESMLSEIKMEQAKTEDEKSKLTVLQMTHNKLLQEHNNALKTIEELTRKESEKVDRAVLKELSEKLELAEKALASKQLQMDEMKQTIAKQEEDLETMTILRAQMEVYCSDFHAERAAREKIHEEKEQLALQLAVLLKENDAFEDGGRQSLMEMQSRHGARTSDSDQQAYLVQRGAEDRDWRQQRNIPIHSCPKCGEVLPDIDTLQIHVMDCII

binding result (endogenous TRIM16) | binding result [1] | binding result [2] | binding result (Optineurin) | Binder
binds |  |  |  | endogenous ULK1 (enzyme, UniProt O75385 1-1050, looked up) MEPGRGGTETVGKFEFSRKDLIGHGAFAVVFKGRHREKHDLEVAVKCINKKNLAKSQTLLGKEIKILKELKHENIVALYDFQEMANSVYLVMEYCNGGDLADYLHAMRTLSEDTIRLFLQQIAGAMRLLHSKGIIHRDLKPQNILLSNPAGRRANPNSIRVKIADFGFARYLQSNMMAATLCGSPMYMAPEVIMSQHYDGKADLWSIGTIVYQCLTGKAPFQASSPQDLRLFYEKNKTLVPTIPRETSAPLRQLLLALLQRNHKDRMDFDEFFHHPFLDASPSVRKSPPVPVPSYPSSGSGSSSSSSSTSHLASPPSLGEMQQLQKTLASPADTAGFLHSSRDSGGSKDSSCDTDDFVMVPAQFPGDLVAEAPSAKPPPDSLMCSGSSLVASAGLESHGRTPSPSPPCSSSPSPSGRAGPFSSSRCGASVPIPVPTQVQNYQRIERNLQSPTQFQTPRSSAIRRSGSTSPLGFARASPSPPAHAEHGGVLARKMSLGGGRPYTPSPQVGTIPERPGWSGTPSPQGAEMRGGRSPRPGSSAPEHSPRTSGLGCRLHSAPNLSDLHVVRPKLPKPPTDPLGAVFSPPQASPPQPSHGLQSCRNLRGSPKLPDFLQRNPLPPILGSPTKAVPSFDFPKTPSSQNLLALLARQGVVMTPPRNRTLPDLSEVGPFHGQPLGPGLRPGEDPKGPFGRSFSTSRLTDLLLKAAFGTQAPDPGSTESLQEKPMEIAPSAGFGGSLHPGARAGGTSSPSPVVFTVGSPPSGSTPPQGPRTRMFSAGPTGSASSSARHLVPGPCSEAPAPELPAPGHGCSFADPITANLEGAVTFEAPDLPEETLMEQEHTEILRGLRFTLLFVQHVLEIAALKGSASEAAGGPEYQLQESVVADQISLLSREWGFAEQLVLYLKVAELLSSGLQSAIDQIRAGKLCLSSTVKQVVRRLNELYKASVVSCQGLSLRLQRFFLDKQRLLDRIHSITAERLIFSHAVQMVQSAALDEMFQHREGCVPRYHKALLLLEGLQHMLSDQADIENVTKCKLCIERRLSALLTGICA
 | no binding | no binding | no binding | GST-Galectin-8 (other, not shown: GST tag (fusion expressed in E. coli SoluBL21)) MMLSLNNLQNIIYNPVIPFVGTIPDQLDPGTLIVIRGHVPSDADRFQVDLQNGSSMKPRADVAFHFNPRFKRAGCIVCNTLINEKWGREEITYDTPFKREKSFEIVIMVLKDKFQVAVNGKHTLLYGHRIGPEKIDTLGIYGKVNIHSIGFSFSSDLQSTQASSLELTEISRENVPKSGTPQLPSNRGGDISKIAPRTVYTKSKDSTVNHTLTCTKIPPMNYVSKRLPFAARLNTPMGPGRTVVVKGEVNANAKSFNVDLLAGKSKDIALHLNPRLNIKAFVRNSFLQESWGEEERNITSFPFSPGMYFEMIIYCDVREFKVAVNGVHSLEYKHRFKELSSIDTLEINGDIHLLEVRSW
